The values that follow come from article PMC5375031 (Nature, 2017).

The term Kd denotes a measure of binding affinity in units of concentration.

Assay [1] concerns the target T1, TAZ1 domain of CBP (residues 340-439 of mouse CBP) (mouse, UniProt P45481 340-439). The experiment in a line: fluorescence polarisation.
The target of assay [2] is T1, TAZ1 domain of CBP (residues 340-439 of …). The experiment in a line: fluorescence polarisation + BLI.
For assay [3] the target is unchanged. The experiment in a line: fluorescence polarisation. The source holds these as a separate data set. (In general: In fluorescence polarisation assays a small probe gives low polarisation when free and higher when bound to something large.)
The target is the same in assay [4]. Briefly: stopped-flow fluorescence.

Where no end group is shown, it is not given here.

T1 sequence (P45481 340-439): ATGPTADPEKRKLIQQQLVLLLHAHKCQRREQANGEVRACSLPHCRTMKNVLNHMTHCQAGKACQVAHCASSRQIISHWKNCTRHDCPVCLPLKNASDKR

B1: HIF-1α 776-826 C800V labeled with Alexa Fluor 594 at position 780 (peptide, UniProt Q16665 776-826, looked up)
chain: SDLAC(Alexa Fluor 594)RLLGQSMDESGLPQLTSYDVEVNAPIQGSRNLLQGEELLRALDQVN
Consider B1, for which, in assay [1], the binding result is “binds”.

B2: HIF-1α C-terminal transactivation domain peptide (residues 776-826) (peptide, UniProt Q16665 776-826, looked up)
chain: SDLACRLLGQSMDESGLPQLTSYDCEVNAPIQGSRNLLQGEELLRALDQVN
On to B2, for which, in assay [1], the “apparent Kd (displacing labeled HIF-1α from TAZ1)” value stood at 10 ± 1 nM. In assay [2], the Kd stood at 10 nM.

B3: CITED2 216-269 labeled with Alexa Fluor 594 at Cys 261 (peptide, UniProt Q99967 216-269, looked up)
chain: NVIDTDFIDEEVLMSLVIEMGLDRIKELPELWLGQNEFDFMTDFVC(Alexa Fluor 594)KQQPSRVS
With B3, in assay [3], the binding result is “binds”.

B4: HIF-1α 776-826 C800V labeled with Alexa Fluor 488 at position 780 (peptide, UniProt Q16665 776-826, looked up)
chain: SDLAC(Alexa Fluor 488)RLLGQSMDESGLPQLTSYDVEVNAPIQGSRNLLQGEELLRALDQVN
As to B4, in assay [4], the binding result is “binds”.

B5: CITED2 transactivation domain peptide (residues 216-269) (peptide, UniProt Q99967 216-269, looked up)
chain: NVIDTDFIDEEVLMSLVIEMGLDRIKELPELWLGQNEFDFMTDFVCKQQPSRVS
For B5, in assay [2], the Kd came out at 10 nM.
